The record followed here is patent publication US10221225B2, “Peptides and combination of peptides and scaffolds thereof for use in immunotherapy against colorectal carcinoma (CRC) and other cancers” (immatics biotechnologies GmbH, priority 2015, dated 2019).

The target of the assay is HLA-A*02:01 (Homo sapiens, UniProt P04439, D140Y/D185E/D98H/E176V/E277Q/G131W/G231S/I119V/I121R/I166T/I218V/L300P/L318F/N151K/N90K/P208A/P217A/Q86G/Q94H/R138H/R169H/T345S). Nature of the assay: MHC binding assay (UV-ligand exchange, beta2m ELISA, peptide exchange yield). Particulars: MHC class I binding score; binding to HLA-A*02:01 ranged by peptide exchange yield (UV-ligand exchange, β2m ELISA). An excerpt: Candidate peptides for T cell based therapies according to the present invention were further tested for their MHC binding capacity (affinity). The individual peptide-MHC complexes were produced by UV-ligand exchange, where a UV-sensitive peptide is cleaved upon UV-irradiation, and exchanged with the peptide of interest as analyzed. Only peptide candidates that can effectively bind and stabilize the peptide-receptive MHC molecules prevent dissociation of the MHC complexes. To determine the yield of the exchange reaction, an ELISA was performed based on the detection of the light chain (β2m) of stabilized MHC complexes. The assay was performed as generally described in Rodenko et al. (Rodenko et al., 2006).
96 well MAXISorp plates (NUNC) were coated over night with 2 ug/ml streptavidin in PBS at room temperature, washed 4× and blocked for 1 h at 37° C. in 2% BSA containing blocking buffer. Refolded HLA-A*02:01/MLA-001 monomers served as standards, covering the range of 15-500 ng/ml. Peptide-MHC monomers of the UV-exchange reaction were diluted 100 fold in blocking buffer. Samples were incubated for 1 h at 37° C., washed four times, incubated with 2 ug/ml HRP conjugated anti-β2m for 1 h at 37° C., washed again and detected with TMB solution that is stopped with […]. Absorption was measured at 450 nm. Candidate peptides that show a high exchange yield (preferably higher than 50%, most preferred higher than 75%) are generally preferred for a generation and production of antibodies or fragments thereof, and/or T cell receptors or fragments thereof, as they show sufficient avidity to the MHC molecules and prevent dissociation of the MHC complexes.
In general terms: In an ELISA, binding on a coated surface is turned into a signal by an enzyme label.
Take “82 (QLYEEPDTKL; listed as Homo sapiens) [compound 82]”: the Peptide exchange entry was “″++″ (≥20% = ++)”.
Then “83 (LTIEDGIFEV; listed as Homo sapiens) [compound 83]”, with “″+++″ (≥50 = +++)”.
With “84 (SMVEDITGLRL; listed as Homo sapiens) [compound 84]”, the Peptide exchange entry is on record as “″+++″ (≥50 = +++)”.
Then “85 (ILHDINSDGVL; listed as Homo sapiens) [compound 85]”, with “″++″ (≥20% = ++)”; and “86 (KVFPGKISV; listed as Homo sapiens) [compound 86]”, with “″++″ (≥20% = ++)”.
For “87 (LLFDAPDLRL; listed as Homo sapiens) [compound 87]” the value was “″+++″ (≥50 = +++)”.
For the substance “88 (KLDIKVETV; listed as Homo sapiens) [compound 88]”, the Peptide exchange result is “″++++″ (≥75% = ++++)”.
Then “89 (SLIEYEFRV; listed as Homo sapiens) [compound 89]”, with “″+++″ (≥50 = +++)”; and “90 (GLLKPGLNVVL; listed as Homo sapiens) [compound 90]”, with “″+++″ (≥50 = +++)”.
Then “91 (TVDVATPSV; listed as Homo sapiens) [compound 91]”, with “″+++″ (≥50 = +++)”; and “92 (WIDDTSAFV; listed as Homo sapiens) [compound 92]”, with “″+++″ (≥50 = +++)”; and “93 (SLQELRLLL; listed as Homo sapiens) [compound 93]”, with “″++++″ (≥75% = ++++)”.
Then “94 (KSMDIVLTV; listed as Homo sapiens) [compound 94]”, with “″+++″ (≥50 = +++)”; and “95 (AILDAHIEV; listed as Homo sapiens) [compound 95]”, with “″++++″ (≥75% = ++++)”.
Consider “96 (KLYSRLVYV; listed as Homo sapiens) [compound 96]”, for which the Peptide exchange entry is listed as “″++″ (≥20% = ++)”.
In the case of “97 (ALWWGVVTV; listed as Homo sapiens) [compound 97]”, the Peptide exchange result is “″++″ (≥20% = ++)”.
For “98 (AMNGKSFSV; listed as Homo sapiens) [compound 98]” the value was “″++″ (≥20% = ++)”; for “99 (KLLEVDLDTV; listed as Homo sapiens) [compound 99]”, “″+++″ (≥50 = +++)”.
For “100 (SLDDFLATA; listed as Homo sapiens) [compound 100]” the value was “″+++″ (≥50 = +++)”.
Then “101 (GLSEGHTFQV; listed as Homo sapiens) [compound 101]”, with “″+++″ (≥50 = +++)”; and “102 (KILVSLIEV; listed as Homo sapiens) [compound 102]”, with “″+++″ (≥50 = +++)”; and “103 (FLFGYPKRL; listed as Homo sapiens) [compound 103]”, with “″++″ (≥20% = ++)”.
In the case of “104 (ILLTIKDDTIYL; listed as Homo sapiens) [compound 104]”, the Peptide exchange entry is “″+++″ (≥50 = +++)”.
Take “105 (YALDLSTFL; listed as Homo sapiens) [compound 105]”: the Peptide exchange result is “″+++″ (≥50 = +++)”.
Then “106 (SLISEKILL; listed as Homo sapiens) [compound 106]”, with “″+++″ (≥50 = +++)”.
“107 (ALLGGGPYML; listed as Homo sapiens) [compound 107]”: the Peptide exchange result is “″+++″ (≥50 = +++)”.
In the case of “108 (SLAELVPGVGGI; listed as Homo sapiens) [compound 108]”, the Peptide exchange entry is given as “″+++″ (≥50 = +++)”.
Turning to “109 (ALDGDQMEL; listed as Homo sapiens) [compound 109]”, the Peptide exchange entry is reported as “″++″ (≥20% = ++)”.
For “110 (LLGELPRLLLL; listed as Homo sapiens) [compound 110]” the value was “″+++″ (≥50 = +++)”; for “112 (KLGQVLIYL; listed as Homo sapiens) [compound 112]”, “″++″ (≥20% = ++)”; for “113 (ILYDLQQNL; listed as Homo sapiens) [compound 113]”, “″++″ (≥20% = ++)”.
On to “114 (TAVGHALVL; listed as Homo sapiens) [compound 114]”, for which the Peptide exchange result is on record as “″+″ (≥10% = +)”.
With “115 (SLFDVSHML; listed as Homo sapiens) [compound 115]”, the Peptide exchange entry is “″+++″ (≥50 = +++)”.
As to “116 (LVYQFVHPI; listed as Homo sapiens) [compound 116]”, the Peptide exchange result is “″++″ (≥20% = ++)”.
On to “117 (TLQPVDNSTISL; listed as Homo sapiens) [compound 117]”, for which the Peptide exchange result is on record as “″++″ (≥20% = ++)”.
For “118 (LLADLKTMV; listed as Homo sapiens) [compound 118]” the value was “″+++″ (≥50 = +++)”.
Take “119 (ILYQTVTGL; listed as Homo sapiens) [compound 119]”: the Peptide exchange result was “″++″ (≥20% = ++)”.
For “120 (VLYEGVDEV; listed as Homo sapiens) [compound 120]” the value was “″++″ (≥20% = ++)”.
For “121 (SLAPNIISQL; listed as Homo sapiens) [compound 121]” the value was “″+++″ (≥50 = +++)”; for “122 (SLMGMVLKL; listed as Homo sapiens) [compound 122]”, “″+++″ (≥50 = +++)”; for “125 (KLGDFGLLVEL; listed as Homo sapiens) [compound 125]”, “″++++″ (≥75% = ++++)”.
For “126 (TLAKYLMEL; listed as Homo sapiens) [compound 126]” the value was “″+++″ (≥50 = +++)”; for “128 (MLDDRAYLV; listed as Homo sapiens) [compound 128]”, “″++″ (≥20% = ++)”.
“129 (VLIDVLKEL; listed as Homo sapiens) [compound 129]”: the Peptide exchange entry is “″+++″ (≥50 = +++)”.
For “130 (GLGGSQLIDTHL; listed as Homo sapiens) [compound 130]” the value was “″++″ (≥20% = ++)”; for “131 (KLLDVVHPA; listed as Homo sapiens) [compound 131]”, “″++″ (≥20% = ++)”.
Take “134 (GVAGGSILKGV; listed as Homo sapiens) [compound 134]”: the Peptide exchange result is on record as “″++++″ (≥75% = ++++)”.
In the case of “135 (KLQEEIPVL; listed as Homo sapiens) [compound 135]”, the Peptide exchange result was “″++″ (≥20% = ++)”.
In the case of “137 (QLTEIKPLL; listed as Homo sapiens) [compound 137]”, the Peptide exchange entry was “″+++″ (≥50 = +++)”.
Turning to “138 (KQFEGTVEI; listed as Homo sapiens) [compound 138]”, the Peptide exchange result is recorded as “″+++″ (≥50 = +++)”.
For “139 (VLLNEILEQV; listed as Homo sapiens) [compound 139]”, the Peptide exchange entry is listed as “″+++″ (≥50 = +++)”.
Then “140 (LLNEILEQV; listed as Homo sapiens) [compound 140]”, with “″+++″ (≥50 = +++)”; and “143 (KLSDVWKEL; listed as Homo sapiens) [compound 143]”, with “″+++″ (≥50 = +++)”.
For “144 (LLNDRIWLA; listed as Homo sapiens) [compound 144]” the value was “″+++″ (≥50 = +++)”; for “145 (LLLEVVKQV; listed as Homo sapiens) [compound 145]”, “″+++″ (≥50 = +++)”.
For “146 (ALSDETWGL; listed as Homo sapiens) [compound 146]” the value was “″++″ (≥20% = ++)”; for “147 (TLTELRAFL; listed as Homo sapiens) [compound 147]”, “″++++″ (≥75% = ++++)”; for “148 (RLLENMTEVV; listed as Homo sapiens) [compound 148]”, “″+++″ (≥50 = +++)”.
Turning to “149 (YQFDKVGILTL; listed as Homo sapiens) [compound 149]”, the Peptide exchange entry was “″+++″ (≥50 = +++)”.
Regarding “151 (SAQGSDVSLTACKV; listed as Homo sapiens) [compound 151]”, the Peptide exchange entry is recorded as “″+++″ (≥50 = +++)”.
Turning to “152 (KLLAVIHEL; listed as Homo sapiens) [compound 152]”, the Peptide exchange entry was “″++″ (≥20% = ++)”.
Then “153 (ILFSEDSTKLFV; listed as Homo sapiens) [compound 153]”, with “″+++″ (≥50 = +++)”; and “154 (KLPSETIFVGC; listed as Homo sapiens) [compound 154]”, with “″+++″ (≥50 = +++)”; and “155 (RLLGEEVVRV; listed as Homo sapiens) [compound 155]”, with “″+++″ (≥50 = +++)”.
